Results: the supplement of paper PMC7125110
± gives the standard error. Variants at the floor of the assay were thinned out.

B1: glmS ribozyme (parent)
chain: AUAAAAGCGCCAGAACUACAGAAAUGUAGUUGACGAGGAGGAGGUUUAUCGAAUUUUCGGCGGAUGCCUCCAAA

Legend:
Conditions in all cases: with glucosamine-6-phosphate
[1] = variants of: B1; assay: self-cleavage kobs at 640 uM GlcN6P; higher = faster cleavage; RNA array
Outline: (§1)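 kcat and KM were obtained from weighted Michaelis–Menten fits across concentrations of kobs values. Those came from one- or two-exponential decay fits to per-tile medians normalised to baseline and to non-cleaving reference variants. The variants were barcoded ribozymes transcribed in situ by E. coli RNA polymerase on sequenced MiSeq chips and tracked through a hybridised Cy3 probe at 37 °C, with 40 μM to 10 mM glucosamine-6-phosphate in HEPES/KCl/Mg(OAc)2 buffer flowed in.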

[2] = variants of: B1; assay: self-cleavage kobs at 2500 uM GlcN6P; higher = faster cleavage; RNA array
Outline: as §1

[3] = variants of: B1; assay: self-cleavage kobs at 10000 uM GlcN6P; higher = faster cleavage; RNA array
Outline: as §1

Variant | self-cleavage kobs at 640 uM GlcN6P [1] [s⁻¹] | self-cleavage kobs at 2500 uM GlcN6P [2] [s⁻¹] | self-cleavage kobs at 10000 uM GlcN6P [3] [s⁻¹]
A14G C16A U56A | 0.00547 ± 0.0015 | 0.00293 ± 0.0013 | 
G35U U47G A52G C70A | 9.25e-05 ± 3.2e-05 |  | 
U30A U46G U55G | 0.000157 ± 3.5e-05 | 0.000349 ± 6.6e-05 | 
C16U G32U A36C C58U | < 1e-05 |  | 
G9C C11U U56G G66C | < 1e-05 |  | 
G38C G43C C68U | < 1e-05 |  | 
U30G U49C | < 1e-05 | < 1e-05 | 
A6U G29C A48U | < 1e-05 |  | 
G40A U65G G66U | 0.00012 ± 2.6e-05 | 0.000547 ± 0.00026 | 
A14C C16U A36G | < 1e-05 |  | 
A14C G41C G44C C50G | < 1e-05 |  | 
G29U G38U U57A G59C | < 1e-05 |  | 
A14U G40A A53C C71A | 5.44e-05 ± 1.1e-05 | 0.000153 ± 2.6e-05 | 
G13U U69C | 7.4e-05 ± 2.2e-05 | 0.000149 ± 3e-05 | 0.00027 ± 7.1e-05
C8U G40U G59U C68U | < 1e-05 |  | 
C11U G32U A33C | < 1e-05 | < 1e-05 | 
U31G G44U G62U | < 1e-05 | < 1e-05 | 

Variant | self-cleavage kobs at 640 uM GlcN6P [1] [s⁻¹] | self-cleavage kobs at 2500 uM GlcN6P [2] [s⁻¹] | self-cleavage kobs at 10000 uM GlcN6P [3] [s⁻¹]
G43A G44U C68G | < 1e-05 | < 1e-05 | 
G32U C34A | < 1e-05 | < 1e-05 | < 1e-05
G32C G44U G51U A53U C58G | < 1e-05 |  | 
A12U A42G C68U | 0.00273 ± 0.00096 |  | 
C16A G41A G43U C61G C68U | < 1e-05 | < 1e-05 | 
G51A A53G C71A | < 1e-05 |  | 
C8G G60A C61G | < 1e-05 | < 1e-05 | 
G35C G43U C61U | < 1e-05 | < 1e-05 | 
C11A C58U G59U G62U C70U | < 1e-05 |  | 
U30A A64U | < 1e-05 |  | 
G35U A39U G62A | < 1e-05 | < 1e-05 | 
G7A A33C A39U | < 1e-05 |  | 
A33C G38C U55C C61G C71U | < 1e-05 | < 1e-05 | 
G7C G9C G44A | < 1e-05 |  | < 1e-05
A53C G60A G66A | < 1e-05 |  | 
C50A C58U C67G | 8.03e-05 ± 3.9e-05 |  | 
C10U A14G U69A | 4.59e-05 ± 2.2e-05 | 4.32e-05 ± 1.9e-05 | 
